Molecular target: T1, ROR1-protein (human, UniProt Q01973 30-403, limits assumed)
T1 construct: also called orphan tyrosine kinase receptor ROR1
Assay: assay not described; monovalent binding affinity for ROR1 compared with mAb 2A2

T1 sequence (Q01973 30-403 limits assumed): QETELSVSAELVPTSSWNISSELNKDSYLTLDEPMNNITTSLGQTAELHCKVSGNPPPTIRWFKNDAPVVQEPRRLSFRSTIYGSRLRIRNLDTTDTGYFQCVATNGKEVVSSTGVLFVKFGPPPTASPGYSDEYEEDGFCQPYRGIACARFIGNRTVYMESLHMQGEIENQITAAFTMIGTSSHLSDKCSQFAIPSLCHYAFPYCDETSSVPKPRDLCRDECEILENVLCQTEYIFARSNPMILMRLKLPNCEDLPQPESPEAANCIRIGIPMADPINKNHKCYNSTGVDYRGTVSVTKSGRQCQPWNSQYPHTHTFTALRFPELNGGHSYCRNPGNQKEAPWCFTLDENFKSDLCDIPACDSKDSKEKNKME

fold higher monovalent binding affinity than 2A2: > 50 fold
B1: anti-ROR1 monoclonal antibody R12 (antibody, V domains shown)
VH: QEQLVESGGRLVTPGGSLTLSCKASGFDFSAYYMSWVRQAPGKGLEWIATIYPSSGKTYYATWVNGRFTISSDNAQNTVDLQMNSLTAADRATYFCARDSYADDGALFNIWGPGTLVTISS
VL: ELVLTQSPSVSAALGSPAKITCTLSSAHKTDTIDWYQQLQGEAPRYLMQVQSDGSYTKRPGVPDRFSGSSSGADRYLIIPSVQADDEADYYCGADYIGGYVFGGGTQLTVTG
notes: also called mAb R12; R12 mAb
